Assay results reported in PMC9561763, “Semi-rational engineering membrane binding domain of L-amino acid deaminase from Proteus vulgaris for enhanced α-ketoisocaproate” (Frontiers in Microbiology, 2022).

Substrate: CC(C)C[C@H](N)C(=O)O
Assay: alpha-ketoisocaproate formation, Michaelis-Menten fit
Assay type: biochemical, Proteus vulgaris
Conditions: 20 mM phosphate pH 7.5, 37 °C, 0-175 mM L-leucine (b36 says optimal temperature and pH), Triton X-100 purified enzyme
Text: alpha-ketoisocaproate formation, Michaelis-Menten fit on L-amino acid deaminase (L-AAD) from Proteus vulgaris

B1: L-amino acid deaminase (L-AAD) from Proteus vulgaris (Proteus vulgaris) (protein)
chain: MAISRRKFIIGGTVVAVAAGAGILTPMLTREGRFVPGTPRHGFVEGTEGALPKQADVVVVGAGILGIMTAINLVERGLSVVIVEKGNIAGEQSSRFYGQAISYKMPDETFLLHHLGKHRWREMNAKVGIDTTYRTQGRVEVPLDEEDLVNVRKWIDERSKNVGSDIPFKTRIIEGAELNQRLRGATTDWKIAGFEEDSGSFDPEVATFVMAEYAKKMGVRIYTQCAARGLETQAGVISDVVTEKGAIKTSQVVVAGGVWSRLFMQNLNVDVPTLPAYQSQQLISGSPTAPGGNVALPGGIFFREQADGTYATSPRVIVAPVVKESFTYGYKYLPLLALPDFPVHISLNEQLINSFMQSTHWNLDEVSPFEQFRNMTALPDLPELNASLEKLKAEFPAFKESKLIDQWSGAMAIAPDENPIISEVKEYPGLVINTATGWGMTESPVSAELTADLLLGKKPVLDPKPFSLYRF
  Km: 17.71 mM
  kcat: 1.41 s⁻¹
  kcat/Km: 79.5 M⁻¹ s⁻¹
